From patent US20110275699

Target: bacterially expressed USF-1, P22415
Sequence (P22415 whole entry, looked up): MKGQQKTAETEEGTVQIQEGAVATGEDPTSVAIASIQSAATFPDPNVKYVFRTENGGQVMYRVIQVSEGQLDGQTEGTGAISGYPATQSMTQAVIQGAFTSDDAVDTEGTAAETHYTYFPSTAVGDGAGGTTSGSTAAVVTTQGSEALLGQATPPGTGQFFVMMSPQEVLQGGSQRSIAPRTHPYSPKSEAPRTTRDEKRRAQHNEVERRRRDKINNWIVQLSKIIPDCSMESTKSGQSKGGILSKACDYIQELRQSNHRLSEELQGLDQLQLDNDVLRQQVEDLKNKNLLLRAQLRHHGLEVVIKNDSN

B1: P/CAF (Upstate), recombinant/purified enzyme (protein)
chain: MLEEEVYSQNSPIWDQDFLSASSRTSQLGIQTVINPPPVAGTISYNSTSSSLEQPNAGSSSPACKASSGLEANPGEKRKMTDSHVLEEAKKPRVMGDIPMELINEVMSTITDPAAMLGPETNFLSAHSARDEAARLEERRGVIEFHVVGNSLNQKPNKKILMWLVGLQNVFSHQLPRMPKEYITRLVFDPKHKTLALIKDGRVIGGICFRMFPSQGFTEIVFCAVTSNEQVKGYGTHLMNHLKEYHIKHDILNFLTYADEYAIGYFKKQGFSKEIKIPKTKYVGYIKDYEGATLMGCELNPRIPYTEFSVIIKKQKEIIKKLIERKQAQIRKVYPGLSCFKDGVRQIPIESIPGIRETGWKPSGKEKSKEPRDPDQLYSTLKSILQQVKSHQSAWPFMEPVKRTEAPGYYEVIRFPMDLKTMSERLKNRYYVSKKLFMADLQRVFTNCKEYNPPESEYYKCANILEKFFFSKIKEAGLIDK
in vitro acetylation of USF-1: USF-1 was acetylated in vitro by P/CAF (lane 3), and acetylation was not detected in the absence of P/CAF or acetyl CoA (lane 1 and 2)
